What was measured:
Assay in all cases: cell-based or functional assay
[1] = molecular target: HIV-1 Env of 0260.v5.c36 (HIV-1)
[2] = molecular target: HIV-1 Env of 3016.V5.c36 (HIV-1)
[3] = molecular target: HIV-1 Env of 6405.v4.c34 (HIV-1)
[4] = molecular target: HIV-1 Env of 6535.3 (HIV-1)
[5] = molecular target: HIV-1 Env of 96ZM651.02 (HIV-1)
[6] = molecular target: HIV-1 Env of AC10.29 (HIV-1)
[7] = molecular target: HIV-1 Env of BG505.w6m (HIV-1)
[8] = molecular target: HIV-1 Env of C1080.c3 (HIV-1)
[9] = molecular target: HIV-1 Env of CAAN.A2 (HIV-1)
[10] = molecular target: HIV-1 Env of CAP210.E8 (HIV-1)
[11] = molecular target: HIV-1 Env of CAP244.D3 (HIV-1)
[12] = molecular target: HIV-1 Env of CAP256.PI (HIV-1)
[13] = molecular target: HIV-1 Env of CAP256.SU (HIV-1)
[14] = molecular target: HIV-1 Env of CAP45.G3 (HIV-1)
[15] = molecular target: HIV-1 Env of CM244.ec1 (HIV-1)
[16] = molecular target: HIV-1 Env of CNE3 (HIV-1)
[17] = molecular target: HIV-1 Env of DU156.12 (HIV-1)
[18] = molecular target: HIV-1 Env of DU172.17 (HIV-1)
[19] = molecular target: HIV-1 Env of DU422.01 (HIV-1)
[20] = molecular target: HIV-1 Env of KER2008.12 (HIV-1)
[21] = molecular target: HIV-1 Env of KER2018.11 (HIV-1)
[22] = molecular target: HIV-1 Env of MB201 (HIV-1)
[23] = molecular target: HIV-1 Env of MB539.2B7 (HIV-1)
[24] = molecular target: HIV-1 Env of PVO.04 (HIV-1)
[25] = molecular target: HIV-1 Env of Q168.a2 (HIV-1)
[26] = molecular target: HIV-1 Env of Q23.17 (HIV-1)
[27] = molecular target: HIV-1 Env of Q259.d2.17 (HIV-1)
[28] = molecular target: HIV-1 Env of Q461.e2 (HIV-1)
[29] = molecular target: HIV-1 Env of Q769.d22 (HIV-1)
[30] = molecular target: HIV-1 Env of Q842.d12 (HIV-1)
[31] = molecular target: HIV-1 Env of QH0692.42 (HIV-1)
[32] = molecular target: HIV-1 Env of REJO.67 (HIV-1)
[33] = molecular target: HIV-1 Env of RHPA.7 (HIV-1)
[34] = molecular target: HIV-1 Env of RW020.2 (HIV-1)
[35] = molecular target: HIV-1 Env of SC422.8 (HIV-1)
[36] = molecular target: HIV-1 Env of TH976.17 (HIV-1)
[37] = molecular target: HIV-1 Env of THRO.18 (HIV-1)
[38] = molecular target: HIV-1 Env of TRJO.58 (HIV-1)
[39] = molecular target: HIV-1 Env of TRO.11 (HIV-1)
[40] = molecular target: HIV-1 Env of UG037.8 (HIV-1)
[41] = molecular target: HIV-1 Env of WITO.33 (HIV-1)
[42] = molecular target: HIV-1 Env of ZM109.4 (HIV-1)
[43] = molecular target: HIV-1 Env of ZM135.10a (HIV-1)
[44] = molecular target: HIV-1 Env of ZM197.7 (HIV-1)
[45] = molecular target: HIV-1 Env of ZM214.15 (HIV-1)
[46] = molecular target: HIV-1 Env of ZM233.6 (HIV-1)
[47] = molecular target: HIV-1 Env of ZM249.1 (HIV-1)
[48] = molecular target: HIV-1 Env of ZM53.12 (HIV-1)

Measured: IC50 (neutralization, TZM-bl)

CAP256-VRC26.30 (antibody)
37.8 µg/mL: [5]
9.04 µg/mL: [7]
0.4 µg/mL: [19]
0.848 µg/mL: [17]
< 0.0006 µg/mL: [10] | [13] | [21] | [48]
1 µg/mL: [44]
> 50 µg/mL: [1] | [3] | [4] | [6] | [9] | [11] | [12] | [15] | [16] | [18] | [20] | [22] | [23] | [26] | [28] | [29] | [30] | [31] | [32] | [33] | [34] | [35] | [36] | [37] | [38] | [39] | [40] | [41] | [42] | [43] | [45]
12.6 µg/mL: [24]
0.317 µg/mL: [14]
0.107 µg/mL: [27]
0.199 µg/mL: [25]
0.762 µg/mL: [47]
0.188 µg/mL: [46]
1.05 µg/mL: [2]
0.073 µg/mL: [8]

CAP256-VRC26.31 (antibody)
< 0.0006 µg/mL: [13] | [48]
1.66 µg/mL: [19]
0.74 µg/mL: [46]
3.22 µg/mL: [44]
> 50 µg/mL: [1] | [2] | [3] | [4] | [5] | [6] | [7] | [9] | [11] | [12] | [14] | [15] | [16] | [18] | [20] | [22] | [23] | [24] | [26] | [28] | [29] | [30] | [31] | [32] | [33] | [34] | [35] | [36] | [37] | [38] | [39] | [40] | [41] | [42] | [43] | [45] | [47]
0.002 µg/mL: [21]
1.67 µg/mL: [8]
0.262 µg/mL: [27]
4.46 µg/mL: [17]
0.003 µg/mL: [10]
4.16 µg/mL: [25]

Source: US20200199204A1
